Key:
[1] = molecular target: IL-18 WT (native sequence, SEQ ID NO: 1) (human) (UniProt Q14116)
[2] = molecular target: C086 (SEQ ID NO: 30; E6K, V11I, C38A, K53A, T63A, C76A, C127A) (human) (UniProt Q14116); test: cell-based or functional assay
[3] = molecular target: C144 (V11I, C38A, K53A, T63A, C76A, C127A) (human) (UniProt Q14116); test: cell-based or functional assay
[4] = molecular target: C147 (V11I, C38A, K53A, D54A, C76A, C127A) (human) (UniProt Q14116); test: cell-based or functional assay
[5] = molecular target: C148 (F2A, V11I, C38A, K53A, C76A, C127A) (human) (UniProt Q14116); test: cell-based or functional assay
[6] = molecular target: C149 (V11I, E31A, C38A, K53A, C76A, C127A) (human) (UniProt Q14116); test: cell-based or functional assay
[7] = molecular target: C150 (V11I, T34A, C38A, K53A, C76A, C127A) (human) (UniProt Q14116); test: cell-based or functional assay
[8] = molecular target: C152 (V11I, S36A, C38A, K53A, C76A, C127A) (human) (UniProt Q14116); test: cell-based or functional assay
[9] = molecular target: C153 (V11I, D37A, C38A, K53A, C76A, C127A) (human) (UniProt Q14116); test: cell-based or functional assay
[10] = molecular target: C154 (V11I, E31A, D37A, C38A, K53A, C76A, C127A) (human) (UniProt Q14116); test: cell-based or functional assay
[11] = molecular target: C156 (V11I, C38A, N41A, K53A, C76A, C127A) (human) (UniProt Q14116); test: cell-based or functional assay
[12] = molecular target: C157 (V11I, C38A, K53A, C76A, C127A, D132A) (human) (UniProt Q14116); test: cell-based or functional assay
[13] = molecular target: C158 (V11I, C38A, K53A, C76A, G108A, C127A) (human) (UniProt Q14116); test: cell-based or functional assay
[14] = molecular target: C160 (V11I, C38A, K53A, C76A, D110A, C127A) (human) (UniProt Q14116); test: cell-based or functional assay
[15] = molecular target: C161 (K8R, V11I, C38A, C76A, Q103E, C127A) (human) (UniProt Q14116); test: cell-based or functional assay
[16] = molecular target: C164 (V11I, C38A, S55H, C76A, C127A) (human) (UniProt Q14116); test: cell-based or functional assay
[17] = molecular target: C165 (V11I, C38A, S55R, C76A, C127A) (human) (UniProt Q14116); test: cell-based or functional assay
[18] = molecular target: C168 (V11I, C38A, C76A, S105K, C127A) (human) (UniProt Q14116); test: cell-based or functional assay
[19] = molecular target: IL-18 WT (native sequence, SEQ ID NO: 1) (human) (UniProt Q14116); test: cell-based or functional assay
[20] = molecular target: IL-18 polypeptide SEQ ID NO: 34 (E06K, K53A, S55A) (human) (UniProt Q14116); test: cell-based or functional assay
[21] = molecular target: IL-18 polypeptide SEQ ID NO: 35 (Y01G, F02A, E06K, M51G, K53A, D54A, S55A, T63A) (human) (UniProt Q14116); test: cell-based or functional assay
[22] = molecular target: IL-18 polypeptide SEQ ID NO: 37 (S55A) (human) (UniProt Q14116); test: cell-based or functional assay
[23] = molecular target: IL-18 polypeptide SEQ ID NO: 38 (E06K) (human) (UniProt Q14116); test: cell-based or functional assay
[24] = molecular target: IL-18 polypeptide SEQ ID NO: 39 (E06K, K53A) (human) (UniProt Q14116); test: cell-based or functional assay
[25] = molecular target: IL-18 polypeptide SEQ ID NO: 41 (K53A, S55A) (human) (UniProt Q14116); test: cell-based or functional assay
[26] = molecular target: IL-18 polypeptide SEQ ID NO: 46 (E06K, K53A, S55A, M51G) (human) (UniProt Q14116); test: cell-based or functional assay
[27] = molecular target: IL-18 polypeptide SEQ ID NO: 47 (C38S, C68S, C76S, C127S) (human) (UniProt Q14116); test: cell-based or functional assay
[28] = molecular target: IL-18 polypeptide SEQ ID NO: 48 (C38S, C68S, C76S, C127S, K70C) (human) (UniProt Q14116); test: cell-based or functional assay
[29] = molecular target: IL-18 polypeptide SEQ ID NO: 50 (E06K, K53A, T63A) (human) (UniProt Q14116); test: cell-based or functional assay
[30] = molecular target: IL-18 polypeptide SEQ ID NO: 51 (T63A) (human) (UniProt Q14116); test: cell-based or functional assay
[31] = molecular target: IL-18 polypeptide SEQ ID NO: 53 (K53A, T63A) (human) (UniProt Q14116); test: cell-based or functional assay
[32] = molecular target: IL-18 polypeptide SEQ ID NO: 57 (E6K, C38S, K53A) (human) (UniProt Q14116); test: cell-based or functional assay
[33] = molecular target: IL-18 polypeptide SEQ ID NO: 59 (E6K, C38A, K53A) (human) (UniProt Q14116); test: cell-based or functional assay
[34] = molecular target: IL-18 polypeptide SEQ ID NO: 6 (E6K, V11I, C38A, K53A, T63A, C68A, C76A, D98C, C127A) (human) (UniProt Q14116); test: cell-based or functional assay
[35] = molecular target: IL-18 polypeptide SEQ ID NO: 60 (E6K, C38Q, K53A) (human) (UniProt Q14116); test: cell-based or functional assay
[36] = molecular target: IL-18 polypeptide SEQ ID NO: 62 (E6K, C38A, K53A, C127A) (human) (UniProt Q14116); test: cell-based or functional assay
Sequence of IL-18 polypeptide SEQ ID NO: 62 (E6K, C38A, K53A, C127A) (human) (Q14116 other isoform, or with tags, fused parts or gaps C38A K53A C127A C38A K53A C127A): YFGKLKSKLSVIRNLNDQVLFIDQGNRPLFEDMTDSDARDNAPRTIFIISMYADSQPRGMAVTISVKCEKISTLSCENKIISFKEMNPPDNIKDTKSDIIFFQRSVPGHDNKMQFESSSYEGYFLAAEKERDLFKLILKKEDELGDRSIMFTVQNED

Sequence of IL-18 WT (native sequence, SEQ ID NO: 1) (human) (Q14116 37-193): as the sequence (Q14116 other isoform, or with tags, fused parts or gaps C38A K53A C127A C38A K53A C127A) above, with K6E, A38C, A53K, A127C counted along it
Sequence of C144 (V11I, C38A, K53A, T63A, C76A, C127A) (human) (Q14116 37-193 V47I/C74A/K89A/T99A/C112A/C163A): as the sequence (Q14116 other isoform, or with tags, fused parts or gaps C38A K53A C127A C38A K53A C127A) above, with K6E, V11I, T63A, C76A counted along it
Sequence of C153 (V11I, D37A, C38A, K53A, C76A, C127A) (human) (Q14116 37-193 V47I/D73A/C74A/K89A/C112A/C163A): as the sequence (Q14116 other isoform, or with tags, fused parts or gaps C38A K53A C127A C38A K53A C127A) above, with K6E, V11I, D37A, C76A counted along it
Sequence of C086 (SEQ ID NO: 30; E6K, V11I, C38A, K53A, T63A, C76A, C127A) (human) (Q14116 other isoform, or with tags, fused parts or gaps with the stated changes): as the sequence (Q14116 other isoform, or with tags, fused parts or gaps C38A K53A C127A C38A K53A C127A) above, with V11I, T63A, C76A counted along it
Sequence of IL-18 polypeptide SEQ ID NO: 6 (E6K, V11I, C38A, K53A, T63A, C68A, C76A, D98C, C127A) (human) (Q14116 other isoform, or with tags, fused parts or gaps with the stated changes): as the sequence (Q14116 other isoform, or with tags, fused parts or gaps C38A K53A C127A C38A K53A C127A) above, with V11I, T63A, C68A, C76A, D98C counted along it
Sequence of C168 (V11I, C38A, C76A, S105K, C127A) (human) (Q14116 37-193 V47I/C74A/C112A/S141K/C163A): as the sequence (Q14116 other isoform, or with tags, fused parts or gaps C38A K53A C127A C38A K53A C127A) above, with K6E, V11I, A53K, C76A, S105K counted along it
Sequence of IL-18 polypeptide SEQ ID NO: 59 (E6K, C38A, K53A) (human) (Q14116 other isoform, or with tags, fused parts or gaps C38A K53A C38A K53A): as the sequence (Q14116 other isoform, or with tags, fused parts or gaps C38A K53A C127A C38A K53A C127A) above, with A127C counted along it
Sequence of IL-18 polypeptide SEQ ID NO: 50 (E06K, K53A, T63A) (human) (Q14116 37-193 E42K/K89A/T99A): as the sequence (Q14116 other isoform, or with tags, fused parts or gaps C38A K53A C127A C38A K53A C127A) above, with A38C, T63A, A127C counted along it
Sequence of C160 (V11I, C38A, K53A, C76A, D110A, C127A) (human) (Q14116 37-193 V47I/C74A/K89A/C112A/D146A/C163A): as the sequence (Q14116 other isoform, or with tags, fused parts or gaps C38A K53A C127A C38A K53A C127A) above, with K6E, V11I, C76A, D110A counted along it
Sequence of IL-18 polypeptide SEQ ID NO: 37 (S55A) (human) (Q14116 37-193 S91A): as the sequence (Q14116 other isoform, or with tags, fused parts or gaps C38A K53A C127A C38A K53A C127A) above, with K6E, A38C, A53K, S55A, A127C counted along it
Sequence of C152 (V11I, S36A, C38A, K53A, C76A, C127A) (human) (Q14116 37-193 V47I/S72A/C74A/K89A/C112A/C163A): as the sequence (Q14116 other isoform, or with tags, fused parts or gaps C38A K53A C127A C38A K53A C127A) above, with K6E, V11I, S36A, C76A counted along it
Sequence of IL-18 polypeptide SEQ ID NO: 60 (E6K, C38Q, K53A) (human) (Q14116 other isoform, or with tags, fused parts or gaps C38Q K53A C38Q K53A): as the sequence (Q14116 other isoform, or with tags, fused parts or gaps C38A K53A C127A C38A K53A C127A) above, with A38Q, A127C counted along it
Sequence of IL-18 polypeptide SEQ ID NO: 53 (K53A, T63A) (human) (Q14116 37-193 K89A/T99A): as the sequence (Q14116 other isoform, or with tags, fused parts or gaps C38A K53A C127A C38A K53A C127A) above, with K6E, A38C, T63A, A127C counted along it
Sequence of C157 (V11I, C38A, K53A, C76A, C127A, D132A) (human) (Q14116 37-193 V47I/C74A/K89A/C112A/C163A/D168A): as the sequence (Q14116 other isoform, or with tags, fused parts or gaps C38A K53A C127A C38A K53A C127A) above, with K6E, V11I, C76A, D132A counted along it
Sequence of IL-18 polypeptide SEQ ID NO: 51 (T63A) (human) (Q14116 37-193 T99A): as the sequence (Q14116 other isoform, or with tags, fused parts or gaps C38A K53A C127A C38A K53A C127A) above, with K6E, A38C, A53K, T63A, A127C counted along it
Sequence of C150 (V11I, T34A, C38A, K53A, C76A, C127A) (human) (Q14116 37-193 V47I/T70A/C74A/K89A/C112A/C163A): as the sequence (Q14116 other isoform, or with tags, fused parts or gaps C38A K53A C127A C38A K53A C127A) above, with K6E, V11I, T34A, C76A counted along it
Sequence of C154 (V11I, E31A, D37A, C38A, K53A, C76A, C127A) (human) (Q14116 37-193 V47I/E67A/D73A/C74A/K89A/C112A/C163A): as the sequence (Q14116 other isoform, or with tags, fused parts or gaps C38A K53A C127A C38A K53A C127A) above, with K6E, V11I, E31A, D37A, C76A counted along it
Sequence of C158 (V11I, C38A, K53A, C76A, G108A, C127A) (human) (Q14116 37-193 V47I/C74A/K89A/C112A/G144A/C163A): as the sequence (Q14116 other isoform, or with tags, fused parts or gaps C38A K53A C127A C38A K53A C127A) above, with K6E, V11I, C76A, G108A counted along it
Sequence of IL-18 polypeptide SEQ ID NO: 41 (K53A, S55A) (human) (Q14116 37-193 K89A/S91A): as the sequence (Q14116 other isoform, or with tags, fused parts or gaps C38A K53A C127A C38A K53A C127A) above, with K6E, A38C, S55A, A127C counted along it
Sequence of IL-18 polypeptide SEQ ID NO: 48 (C38S, C68S, C76S, C127S, K70C) (human) (Q14116 37-193 C74S/C104S/K106C/C112S/C163S): as the sequence (Q14116 other isoform, or with tags, fused parts or gaps C38A K53A C127A C38A K53A C127A) above, with K6E, A38S, A53K, C68S, K70C, C76S, A127S counted along it
Sequence of IL-18 polypeptide SEQ ID NO: 38 (E06K) (human) (Q14116 37-193 E42K): as the sequence (Q14116 other isoform, or with tags, fused parts or gaps C38A K53A C127A C38A K53A C127A) above, with A38C, A53K, A127C counted along it
Sequence of IL-18 polypeptide SEQ ID NO: 46 (E06K, K53A, S55A, M51G) (human) (Q14116 37-193 E42K/M87G/K89A/S91A): as the sequence (Q14116 other isoform, or with tags, fused parts or gaps C38A K53A C127A C38A K53A C127A) above, with A38C, M51G, S55A, A127C counted along it
Sequence of C147 (V11I, C38A, K53A, D54A, C76A, C127A) (human) (Q14116 37-193 V47I/C74A/K89A/D90A/C112A/C163A): as the sequence (Q14116 other isoform, or with tags, fused parts or gaps C38A K53A C127A C38A K53A C127A) above, with K6E, V11I, D54A, C76A counted along it
Sequence of C148 (F2A, V11I, C38A, K53A, C76A, C127A) (human) (Q14116 other isoform, or with tags, fused parts or gaps V11I C38A K53A C76A C127A V11I C38A K53A C76A C127A): as the sequence (Q14116 other isoform, or with tags, fused parts or gaps C38A K53A C127A C38A K53A C127A) above, with F2A, K6E, V11I, C76A counted along it
Sequence of IL-18 polypeptide SEQ ID NO: 34 (E06K, K53A, S55A) (human) (Q14116 37-193 E42K/K89A/S91A): as the sequence (Q14116 other isoform, or with tags, fused parts or gaps C38A K53A C127A C38A K53A C127A) above, with A38C, S55A, A127C counted along it
Sequence of C164 (V11I, C38A, S55H, C76A, C127A) (human) (Q14116 37-193 V47I/C74A/S91H/C112A/C163A): as the sequence (Q14116 other isoform, or with tags, fused parts or gaps C38A K53A C127A C38A K53A C127A) above, with K6E, V11I, A53K, S55H, C76A counted along it
Sequence of IL-18 polypeptide SEQ ID NO: 39 (E06K, K53A) (human) (Q14116 37-193 E42K/K89A): as the sequence (Q14116 other isoform, or with tags, fused parts or gaps C38A K53A C127A C38A K53A C127A) above, with A38C, A127C counted along it

## Fc-fused human IL-18 binding protein isoform a (IL-18BPa) (from UniProt O95998 31-194) (Fc fusion)
[1]
  IC50 (read off the curve), inhibition of IFNg production by NK-92 cells: 1 to 2 nM
[2]
  IC50 (nM), IL-18BPa inhibition of IFNγ induction, NK-92 cells: 284 nM
[3]
  IC50 (nM), IL-18BPa inhibition of IFNγ induction, NK-92 cells: 10.2 nM
[4]
  IC50 (nM), IL-18BPa inhibition of IFNγ induction, NK-92 cells: 5.05 nM
[5]
  IC50 (nM), IL-18BPa inhibition of IFNγ induction, NK-92 cells: 1.17 nM
[6]
  IC50 (nM), IL-18BPa inhibition of IFNγ induction, NK-92 cells: 21.3 nM
[7]
  IC50 (nM), IL-18BPa inhibition of IFNγ induction, NK-92 cells: 3.62 nM
[8]
  IC50 (nM), IL-18BPa inhibition of IFNγ induction, NK-92 cells: 2.22 nM
[9]
  IC50 (nM), IL-18BPa inhibition of IFNγ induction, NK-92 cells: 3.71 nM
[10]
  IC50 (nM), IL-18BPa inhibition of IFNγ induction, NK-92 cells: 3.23 nM
[11]
  IC50 (nM), IL-18BPa inhibition of IFNγ induction, NK-92 cells: 6.08 nM
[12]
  IC50 (nM), IL-18BPa inhibition of IFNγ induction, NK-92 cells: 3.98 nM
[13]
  IC50 (nM), IL-18BPa inhibition of IFNγ induction, NK-92 cells: 1.81 nM
[14]
  IC50 (nM), IL-18BPa inhibition of IFNγ induction, NK-92 cells: 1.07 nM
[15]
  IC50 (nM), IL-18BPa inhibition of IFNγ induction, NK-92 cells: 7.29 nM
[16]
  IC50 (nM), IL-18BPa inhibition of IFNγ induction, NK-92 cells: 0.885 nM
[17]
  IC50 (nM), IL-18BPa inhibition of IFNγ induction, NK-92 cells: 0.44 nM
[18]
  IC50 (nM), IL-18BPa inhibition of IFNγ induction, NK-92 cells: 5.85 nM
[19]
  IC50 (nM), IL-18BPa inhibition of IFNγ induction, NK-92 cells: 1.47 nM
[20]
  IC50 (nM), IL-18BPa inhibition of IFNγ induction, NK-92 cells: 229 nM
[21]
  IC50 (nM), IL-18BPa inhibition of IFNγ induction, NK-92 cells: > 55 nM
[22]
  IC50 (nM), IL-18BPa inhibition of IFNγ induction, NK-92 cells: 4.46 nM
[23]
  IC50 (nM), IL-18BPa inhibition of IFNγ induction, NK-92 cells: 7.79 nM
[24]
  IC50 (nM), IL-18BPa inhibition of IFNγ induction, NK-92 cells: > 703 nM
[25]
  IC50 (nM), IL-18BPa inhibition of IFNγ induction, NK-92 cells: 37.3 nM
[26]
  IC50 (nM), IL-18BPa inhibition of IFNγ induction, NK-92 cells: 0.189 nM
[27]
  IC50 (nM), IL-18BPa inhibition of IFNγ induction, NK-92 cells: 0.444 nM
[28]
  IC50 (nM), IL-18BPa inhibition of IFNγ induction, NK-92 cells: 0.114 nM
[29]
  IC50 (nM), IL-18BPa inhibition of IFNγ induction, NK-92 cells: > 1000 nM
[30]
  IC50 (nM), IL-18BPa inhibition of IFNγ induction, NK-92 cells: 0.239 nM
[31]
  IC50 (nM), IL-18BPa inhibition of IFNγ induction, NK-92 cells: 18.2 nM
[32]
  IC50 (nM), IL-18BPa inhibition of IFNγ induction, NK-92 cells: 1.62 nM
[33]
  IC50 (nM), IL-18BPa inhibition of IFNγ induction, NK-92 cells: 146 nM
[34]
  IC50 (nM), IL-18BPa inhibition of IFNγ induction, NK-92 cells: 5.85 nM
[35]
  IC50 (nM), IL-18BPa inhibition of IFNγ induction, NK-92 cells: 654 nM
[36]
  IC50 (nM), IL-18BPa inhibition of IFNγ induction, NK-92 cells: 780 nM

Source: US20240116997A1
